In the supplement of paper PMC12764529:
± gives the half width of the 95% confidence interval.

Legend:
[1] = folding stability dG unfold (combined trypsin and chymotrypsin); higher = more stable
Outline: (§1)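 Designed mini-proteins with no cysteine and under 80 residues were kept only if AlphaFold2 dimer inter-PAE was above 15. In a PA-tagged cDNA display construct, they were digested with trypsin and chymotrypsin and then sequenced. K50 was inferred by Bayesian fitting of counts, and unfolding free energy was derived per protease or combined against a sequence-predicted unfolded-state K50 and a shared folded-state K50.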

[2] = folding stability dG unfold from chymotrypsin proteolysis; higher = more stable
Outline: as §1

[3] = folding stability dG unfold from trypsin proteolysis; higher = more stable
Outline: as §1

Sequence	folding stability dG unfold [1]	folding stability dG unfold [2]	folding stability dG unfold [3]
SAGGSAGGSEKPPVKTITLVLKVDDAEEAAKALAEELGVEITRIEVTRDENGKVYVRITIRLPSAGGSAGGS [r12_359_TrROS_Hall]	3.9 ± 0.14 kcal/mol	3.99 ± 0.099 kcal/mol	3.6 ± 0.1 kcal/mol
SAGGSAAPLPPDETEVRVEYRYDPEKGVLVITTTTTRFTPEGGATPLETRPVVVEVTEEEKKKVELSAGGSA [r15_191_JUSTAS]	1.17 ± 0.1 kcal/mol	1.04 ± 0.095 kcal/mol	1.25 ± 0.046 kcal/mol
SAGGSAGGMEVVELTVDELRALLPPGAVLLVYNRKTRKLYEIPVEELEALLKPGDKVRVVVLPPSAGGSAGG [r6_893_TrROS_Hall]	4.17 ± 0.25 kcal/mol	4.39 ± 0.074 kcal/mol	3.62 ± 0.17 kcal/mol
SAGMKITVVELDGKSPEELSEEELKKLAEELLKELFPDVKKVKKVTVKVERLPDGRLVLVEVEIEVEEPSAG [r5_526_TrROS_Hall]	1.79 ± 0.13 kcal/mol	1.03 ± 0.089 kcal/mol	2.18 ± 0.13 kcal/mol
SIVIRLPDGKPLMIQLTMYYPPDNDKIEIPVEIYDGGKPRTFEHEIPPGDNKPVTFSLHIPLPPGAYIKISA [r9_973_TrROS]	2.38 ± 0.23 kcal/mol	2.45 ± 0.14 kcal/mol	2.17 ± 0.12 kcal/mol
SAGGAPSTFTSTSPEGETTVTTTTTYYPETGTTTTTTTTTNPATGTSTTTTTTTPVAPPQPPLLEAGASAGG [r13_694_JUSTAS]	1.05 ± 0.067 kcal/mol	1.08 ± 0.047 kcal/mol	0.827 ± 0.056 kcal/mol
SAGGSSSSMVVVTLTFPPDVSPEEVIEKIAATPGVGAQPISYDPATGTFTIRVGSTDPKAVEEVLGSAGGSA [r2_305_JUSTAS]	0.748 ± 0.074 kcal/mol	0.562 ± 0.17 kcal/mol	0.878 ± 0.022 kcal/mol
SAGGPSVDIDPRLNEDGTPYVLATLHIVPVHSDGSSSSADIPVVFDSLDDLLAFVKAISPGSAKVSLSAGGS [r16_652_TrMRF]	0.959 ± 0.058 kcal/mol	1.27 ± 0.083 kcal/mol	0.42 ± 0.067 kcal/mol
SAGGMPPGYRVVLVTKEVETVTFEKKPGNENEYTTTPKIVPREEVVEVTSPEVLAELEAEGYEVTPASAGGS [r8_482_JUSTAS]	-0.0223 ± 0.11 kcal/mol	-0.154 ± 0.17 kcal/mol	0.00788 ± 0.031 kcal/mol
SAGGMPPVKVPVKVTISMKDPKTGKTFTVPVEKVATSEEDLEEIKKEVEELAKELKEKGYKEIEIKIESAGG [r13_360_JUSTAS]	2.87 ± 0.1 kcal/mol	3.14 ± 0.08 kcal/mol	2.14 ± 0.061 kcal/mol
SGATLFIGRFPGEGTLIAVAKLPNGKEIVISFGNYPEGIAGIAALARELDPRAEIKHIELVPPDSVPPEFSA [r9_137_TrMRF]	1.45 ± 0.11 kcal/mol	1.49 ± 0.11 kcal/mol	1.37 ± 0.038 kcal/mol
SAGGSAMPDLAAAPGVTRVEPYPDGLVEIHLDGSEEARDEIEERLRAAGDFEIYRLPDRDTLLVRASAGGSA [r15_554_TrMRF]	-0.025 ± 0.29 kcal/mol	-0.165 ± 0.55 kcal/mol	-0.00819 ± 0.26 kcal/mol
SAGGSAGGIEAVREALEDMPPGEEKEITIPVPGDPNYYIKFTIRTKGNKIKIPIEIEPMPPGQMSAGGSAGG [r6_393_TrROS]	1.08 ± 0.38 kcal/mol	1.63 ± 0.39 kcal/mol	0.632 ± 0.16 kcal/mol
SAGGSAGGSAGGMPTTATITLPGGETLTVPVPVDPSTGTVSEEEIRALVGPEFEFEILGGSAGGSAGGSAGG [r7_492_JUSTAS]	1.24 ± 0.068 kcal/mol	1.49 ± 0.062 kcal/mol	0.779 ± 0.04 kcal/mol
SAMKIIKINGKEVLLVKNENGEILIFVKNKKTNKYYLVKIEIKDGKIKIVEVKPIKTYSLEELLKEELLSAG [r14_384_TrROS_Hall]	3.42 ± 0.11 kcal/mol	3.45 ± 0.023 kcal/mol	3.22 ± 0.16 kcal/mol
SAGGPYYEWEIKLPDNKTISITMRRNPENGRPQHTVTIHDPEKGKPVKEHPFDSPEEAEELIEEGLLSAGGS [r8_450_TrROS]	0.287 ± 0.35 kcal/mol	0.445 ± 0.21 kcal/mol	-0.0517 ± 0.16 kcal/mol
SAGGSLVYRLVLRRGDKVLVVTAPFDSPSDALAAASRLLPGGAELLLEFFDPRTGEPLGTVPFRSVSAGGSA [r2_390_TrMRF]	2.22 ± 0.034 kcal/mol	2.06 ± 0.039 kcal/mol	2.257 ± 0.015 kcal/mol
SAGGSAGGSAGMVIERPDDKVLVILGYDPEKGKVYVAVYDPKTGEVRFKEFDNLEDEIKDSAGGSAGGSAGG [r17_300_TrMRF]	1.91 ± 0.17 kcal/mol	1.76 ± 0.08 kcal/mol	2.16 ± 0.11 kcal/mol
SAGGMELEKAIEFAKETGKEVEIEIEVEDENGKPFVIRVRVKVKPDPEDPNKYKIEVEVEVFPKEELSAGGS [r16_323_TrMRF]	4.08 ± 0.12 kcal/mol	4.38 ± 0.13 kcal/mol	3.61 ± 0.19 kcal/mol
SAGGSAGGWPLMVEYTPPGDGKTQTYPIPIKGPLSEIKDQIKENMPPGFREVEISPANIEKILKSAGGSAGG [r6_889_TrROS]	< -1 kcal/mol	-0.952 ± 0.5 kcal/mol	-0.76 ± 0.39 kcal/mol
SAGGSAGGSAGGVSPEANIKEVSKDPKTGLTTSLAKDPNSDNEITITKDSSGNSSINISSAGGSAGGSAGGS [r10_450_JUSTAS]	0.813 ± 0.073 kcal/mol	1.08 ± 0.029 kcal/mol	0.121 ± 0.038 kcal/mol

Sequence	folding stability dG unfold [1]	folding stability dG unfold [2]	folding stability dG unfold [3]
SLSEEELKKKLEELKKKLKPPKPKVKKVKVKIKNKETNEEIEEEVEIVETPDTVYIYNKKTGKLFKFKIKSA [r9_548_TrROS_Hall]	1.73 ± 0.29 kcal/mol	1.95 ± 0.24 kcal/mol	0.935 ± 0.11 kcal/mol
SAGGSAKIEEIASLPAEEIAEAFGLTVISATVERFEDGTVVLTVEIAPPLGPPIRVTFVFGVDPEKSAGGSA [r15_805_TrMRF]	3.75 ± 0.058 kcal/mol	4.19 ± 0.061 kcal/mol	2.21 ± 0.045 kcal/mol
SAMTITVPPDVSLEQIAKLLGYPNLKSFTKRKVTPNLTPATLTVPEDPNKVIKVLYRPADNYTEVIVLQSAG [r14_713_JUSTAS]	0.921 ± 0.16 kcal/mol	0.822 ± 0.3 kcal/mol	1.02 ± 0.1 kcal/mol
SAGDSVVIPFRLPPENLSPEELLEWIIDEVKEAAKAGLPHKVTIQVPYPGKPWYITIDPKNGEIEIVPSAGG [r19_204_TrROS]	1.52 ± 0.15 kcal/mol	1.66 ± 0.085 kcal/mol	1.04 ± 0.088 kcal/mol
SAPPRTFIIPIERNPDGNVRLNIRMPGMEIEYEFPPGKDAEDALDKLSPHPGFNVELTEVDPNWIKITFSAG [r14_404_TrROS]	1.28 ± 0.48 kcal/mol	1.75 ± 0.35 kcal/mol	1.3 ± 0.23 kcal/mol
SAGGSAGGSAGGSDKGQPRVEIPMPFFMPNPNYVIRITMEIDLDPNGQIREIDVEVYKFSAGGSAGGSAGGS [r4_75_TrROS]	4.08 ± 0.14 kcal/mol	4.67 ± 0.1 kcal/mol	3.21 ± 0.096 kcal/mol
SAGGSAGGMPVEIEILTPDNLLPTFTIPDPEEAEKIKSVEVFGDRFIKITLGDKEIVIEVYPDNSAGGSAGG [r6_206_TrMRF]	1.01 ± 0.12 kcal/mol	0.559 ± 0.063 kcal/mol	1.48 ± 0.061 kcal/mol
SAGGSAKVKIEFFQMPPGGNPRDMQKKAQDKGDIFIIVNKPGWMIVITADDPEDANTIAKEILEEFSAGGSA [r15_546_TrROS]	0.954 ± 0.092 kcal/mol	1.08 ± 0.11 kcal/mol	0.735 ± 0.086 kcal/mol
GSSMTVEVSESVVPGTGKKILHVTVTFGGSDPEVARAQALAYVEKETGLPVVSVTVTRAPDSWTVNMTVVGS [r1_337_JUSTAS]	2.81 ± 0.083 kcal/mol	2.63 ± 0.032 kcal/mol	2.86 ± 0.085 kcal/mol
SAGGEVKTLEVTLEVNGKKVRVRVELTKDGTLKVTVTFEDGTKVELEIKLPKVKVKEVKFYSLEELKSAGGS [r16_48_TrROS_Hall]	2.06 ± 0.1 kcal/mol	1.78 ± 0.05 kcal/mol	2.22 ± 0.071 kcal/mol
SGMERTPLTPTETVTLTIPPGSLTITPTASPGPLTVTVTVPGSGTPTVVELPVEAPDLDAALAAVVAALQSA [r9_982_JUSTAS]	1.12 ± 0.056 kcal/mol	1.39 ± 0.078 kcal/mol	0.787 ± 0.04 kcal/mol
SAGGSAGGDKAVIVDFNPIEPEAVIYFPKTGKAIKFKFDSLEELRDSIEPSGIPVEIVITPPELSAGGSAGG [r6_27_TrMRF]	0.141 ± 0.19 kcal/mol	0.196 ± 0.25 kcal/mol	-0.138 ± 0.19 kcal/mol
SAPLDPDQAKEQAENIADYFQDEMQDQFGMDPSDIDVDVKVEQEPNGHYRITVEITMGNMPIEMEIYVPSAG [r14_226_TrROS]	1.8 ± 0.12 kcal/mol	2.1 ± 0.049 kcal/mol	1.45 ± 0.11 kcal/mol
SAGGSAGGGSLSKPKKYELVATFTFPGTVEEAKEFLEKLLPEDWKVEIEETPDFLKIKLYKRLDSAGGSAGG [r6_952_TrMRF]	4.06 ± 0.063 kcal/mol	4.07 ± 0.049 kcal/mol	4.07 ± 0.13 kcal/mol
SAGGSAGGSKYYRVRFKEEIEITLENGEKLKIKKGDVIVVPSKEDLDRLKALFPNLEVEVEPVSAGGSAGGS [r12_987_TrROS_Hall]	3.7 ± 0.099 kcal/mol	3.91 ± 0.043 kcal/mol	3.16 ± 0.1 kcal/mol
SAGAEVEVVELTDEEIEALAKELNPDVTIEVVVVRVPPPPEKVEVRDPETGETVTLTVTPDGEIRAEKSAGG [r19_70_TrROS_Hall]	0.0774 ± 0.35 kcal/mol	-0.235 ± 0.16 kcal/mol	0.624 ± 0.091 kcal/mol
SAGGMELLGEVTVEKPGKPITFPIYRVPDEPREVVEVRELDPSTGKWTPIGTRELPPGEAERAIEELSAGGS [r8_423_JUSTAS]	0.544 ± 0.16 kcal/mol	0.573 ± 0.17 kcal/mol	0.36 ± 0.08 kcal/mol
SAGGSAGGSAEVPKPGEAKPVLVTSSFTIPLPNGGTLEITTVDLVDVATGTVTPRVEVRSLDSAGGSAGGSA [r18_123_TrMRF]	< -1 kcal/mol	-0.991 ± 0.88 kcal/mol	-0.786 ± 0.33 kcal/mol
SAGGMIEIEYNPDQGYFRITVWPMNPKNGKPKSKEIPIPFEGDPEEALDKVKDLIDDHPGYHVDIEPYSAGG [r13_284_TrROS]	1.05 ± 0.14 kcal/mol	1.27 ± 0.13 kcal/mol	0.657 ± 0.068 kcal/mol
SAGGPMPLDDIEIHNVWPYKGEYWMVMITVPNNGKEIMIPWDDLDELLENDPNVEVDVMPIKPGQPMSAGGS [r16_61_TrROS]	1.25 ± 0.083 kcal/mol	1.21 ± 0.061 kcal/mol	1.12 ± 0.04 kcal/mol
SNVHIHVEPDPDGRVKITLMMPPDNPDEFAEEIAENLGYPVKITDIEPFPFKKNGKPREYYMIEIEIRLPSA [r9_431_TrROS]	2.17 ± 0.25 kcal/mol	2.56 ± 0.2 kcal/mol	1.15 ± 0.13 kcal/mol
